Source: patent publication US20240294604A1 (Stanford University, published 2024)

T1: A Proliferation Inducing Ligand (APRIL) (human, UniProt O75888 105-250)
T1 sequence: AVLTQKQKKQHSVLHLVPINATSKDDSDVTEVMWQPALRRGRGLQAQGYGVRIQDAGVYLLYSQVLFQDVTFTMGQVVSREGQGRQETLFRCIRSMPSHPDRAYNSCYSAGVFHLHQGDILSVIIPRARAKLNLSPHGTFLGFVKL


Legend:
[1] = molecular target: T1, A Proliferation Inducing Ligand (APRIL); assay: cell binding titration by flow cytometry; soluble APRIL varied to 10 nM on cells displaying the BCMA clone
[2] = molecular target: T1, A Proliferation Inducing Ligand (APRIL); assay: cell binding titration by flow cytometry; soluble APRIL varied to 10 nM on cells displaying the BCMA clone; BP is not defined in the filing
BAFF [3] = assay: cell binding titration by flow cytometry; soluble BAFF varied to 10 nM on cells displaying the BCMA clone
BAFF [4] = assay: cell binding titration by flow cytometry; soluble BAFF varied to 10 nM on cells displaying the BCMA clone; B.P is not defined in the filing
BAFF [5] = assay: cell binding titration by flow cytometry; soluble BAFF varied on cells displaying the BCMA clone

Binder | Bmax [1] [A.U.] | Kd [1] [nM] | BP [2] | Bmax (BAFF [3]) [A.U.] | Kd (BAFF [3]) [nM] | B.P (BAFF [4]) | binding result (BAFF [5])
BCMA#75 (receptor, also called Clone #75; clones #49, 75-94) variant BCMA extracellular domain: MLPMAGQCPQNEYFDSLLYACIPCQLRCSSSTPPLACQHYCNASVTRSVEGTNA | 7060 | ~0.016 | 441 | – | – | – | –
BCMA#71 (receptor, also called Clone #71; sBCMA variant clone 71) variant BCMA extracellular domain: MLQMAGQCSQNEYFDGLLYACIPCQLRCSSNTPPLACQRYCNASVTNSVKGTDA | 8270 | 0.008 | 1030 | 1230 | 0.009 | 136 | –
BCMA#72 (receptor, also called Clone #72; sBCMA variant clone 72) variant BCMA extracellular domain: MLQMAGQCSQNEYFDGLLYACIPCQLRCSSNTPPLACQRYCNASVTNSVKGTNA | 5860 | 0.018 | 325 | 974 | 0.008 | 121 | –
BCMA#74 (receptor, also called Clone #74; sBCMA variant clone 74) variant BCMA extracellular domain: MLQMAGQCPQDEYFDGLLYACIPCQLRCSSNTPPLACQRYCNASVTSSVKGTDA | 9200 | 0.007 | 1310 | 1680 | 0.009 | 186 | –

Continued, values first:

Bmax [1] [A.U.] | Kd [1] [nM] | BP [2] | Bmax (BAFF [3]) [A.U.] | Kd (BAFF [3]) [nM] | B.P (BAFF [4]) | binding result (BAFF [5]) | Binder
7910 | 0.015 | 527 | 870 | 0.028 | – | – | BCMA#106 (receptor, also called Clone #106; clones #106-111) variant BCMA extracellular domain: VSQTAGQCSQNEYFDGLLHACIPCQLRCSSDIPPLACQRYCNASVTNSVKGTNA
5530 | 0.054 | 102 | – | – | – | no binding | BCMA#73 (receptor, also called Clone #73; clone #22) variant BCMA extracellular domain: MLQMAGQCSQNEYFDGLLHACIPCQLRCSSNTPPLACQRYCNASVTNSVKGTNA
7230 | 0.028 | 258 | – | – | – | – | BCMA#95 (receptor, also called Clone #95) variant BCMA extracellular domain: VSQTAGQCSQDEYFDSLLYACIPCQLRCSSNTPPLACQRYCNASVTNSVKGTNA
